# T1: HMGB1 full-length and domains (Homo sapiens, UniProt P09429)
# T1 construct: recombinant GST constructs encoding full-length HMGB1 or distinct HMGB1 domains
# T1 sequence (P09429 1-215): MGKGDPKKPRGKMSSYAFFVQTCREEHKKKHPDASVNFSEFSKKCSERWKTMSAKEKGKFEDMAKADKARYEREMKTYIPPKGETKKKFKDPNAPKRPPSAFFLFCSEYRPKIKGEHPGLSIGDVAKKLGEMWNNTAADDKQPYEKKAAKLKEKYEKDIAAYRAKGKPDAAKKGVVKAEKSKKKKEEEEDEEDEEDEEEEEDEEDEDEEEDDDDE
# T2: HMGB1 (Homo sapiens, UniProt P09429)
# T2 sequence (P09429 1-215): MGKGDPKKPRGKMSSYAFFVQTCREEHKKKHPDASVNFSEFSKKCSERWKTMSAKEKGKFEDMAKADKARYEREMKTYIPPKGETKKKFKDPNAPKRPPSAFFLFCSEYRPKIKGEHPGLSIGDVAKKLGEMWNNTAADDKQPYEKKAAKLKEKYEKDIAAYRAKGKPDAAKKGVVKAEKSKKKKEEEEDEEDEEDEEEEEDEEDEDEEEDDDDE
# Columns and labels:
# [1] = test system: HMGB1 full-length and domains; test: In vitro GST pull down of recombinant GST-HMGB1 constructs with protein VII; type: binding
# [2] = target: T1, HMGB1 full-length and domains; test: as above; type: binding
# HMGB1 = target: T2, HMGB1; test: Fluorescence recovery after photobleaching (FRAP) of HMGB1-mGFP; type: cell-based
# Protocol: Full-length HMGB1 was cloned from pcDNA3.1 Flag-hHMGB1 (Addgene 31609) into pEGFP-N1 containing a L221K mutation to prevent dimerization of GFP molecules (Zacharias et al. (2002) Science 296:913-916). A549 cells were induced to express protein VII for four days with doxycycline in glass-bottom dishes. Cells were then transfected with the construct that constitutively expresses HMGB1 with a monomeric GFP C-terminal tag. FRAP was carried out using standard methods on a Zeiss LSM confocal microscope. Diffusion coefficients were calculated using the “simFRAP” algorithm (imagej.nih.gov/ij/plugins/simfrap/index.html), a simulation based approach to FRAP analysis (Blumenthal et al. (2015) Sci. Rep., 5:11655).
molecule,measurement,setting,value
"protein VII: mature protein VII of human adenovirus type 5 (SEQ ID NO:1), expressed in cells, mostly with C-terminal HA tag (protein, C-terminal HA tag; Human adenovirus 5) AKKRSDQHPVRVRGHYRAPWGAHKRGRTGRTTVDDAIDAVVEEARNYTPTPPPVSTVDAAIQTVVRGARRYAKMKRRRRRVARRHRRRPGTAAQRAAAALLNRARRTGRRAAMRAARRLAAGIVTVPPRSRRRAAAAAAAAISAMTQGRRGNVYWVRDSVSGLRVPVRTRPPRN",Binding to HMGB1 acidic tail (C-terminus) in vitro,[1],binds
same,Pull-down by full-length HMGB1 construct in vitro,[2],able to also pull-down protein VII
same,HMGB1 mobility by FRAP,"HMGB1; A549 cells expressing protein VII, HMGB1-mGFP",decreased HMGB1 diffusion
same,Fluorescence recovery after photo-bleaching of full-length HMGB1 and HMGB1 A box,HMGB1; upon expression of protein VII,dramatically delayed

# Reference: US20190276499A1, “Protein VII Fragments and Methods of Use Thereof for the Treatment of Inflammatory Disorders” (priority 2016, published 2019)
